# Measured values from article doi:10.1101/2020.01.14.906479 (bioRxiv, 2020).
# Square brackets hold non-standard residues; d marks the D form. Ends that are not written are not given here. pS = N[C@@H](COP(=O)(O)O)C(=O)O
# T1: recombinant Plasmodium falciparum 14-3-3I (GST-14-3-3I fusion protein) (P. falciparum 3D7, UniProt C0H4V6 1-262)
# T1 sequence (looked up): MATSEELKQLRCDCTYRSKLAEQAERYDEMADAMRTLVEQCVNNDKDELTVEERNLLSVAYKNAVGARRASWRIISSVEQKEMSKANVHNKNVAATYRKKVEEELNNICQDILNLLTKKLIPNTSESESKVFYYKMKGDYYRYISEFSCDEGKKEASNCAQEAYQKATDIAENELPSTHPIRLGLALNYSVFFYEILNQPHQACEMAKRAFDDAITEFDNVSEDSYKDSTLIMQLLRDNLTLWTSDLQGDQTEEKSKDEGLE
# Biological target: T1, recombinant Plasmodium falciparum …
# Assay: ITC
Binder,Ka [M⁻¹],dH [kcal/mol]
"RLYH[pS]LPA [phosphopeptide 2 (Mode II 14-3-3 recognition motif, RLYHpSLPA)]",830000,-1.52 ± 0.096
"ARSH[pS]YPA [phosphopeptide 1 (Mode I 14-3-3 recognition motif, ARSHpSYPA)]",1.7e+06,-11.3 ± 4.27
